Data taken from PMC11449360.

Target: Recombinant full-length MMTV Gag containing hexa-histidine tag at the C-terminus (Pr77^Gag) (mouse mammary tumor virus (MMTV))
Assay: dynamic light scattering; purified Pr77^Gag-His6 alone in storage buffer (50 mM Tris-HCl pH 8.0, 1 M NaCl); the hydrodynamic radius (about 6.00 nm) from volume and number distributions is read as the oligomer's size

For “Recombinant full-length MMTV Gag containing hexa-histidine tag at the C-terminus (Pr77^Gag) (natural protein)”, the stoichiometry N was 3.
